How the values were obtained:
REF6 ZnF1-4 WT [1] = target: T1, REF6 ZnF1-4 WT (Arabidopsis thaliana, UniProt Q9STM3 1223-1360); experiment: EMSA; MST: 20 mM HEPES pH 7.3, 150 mM NaCl, 0.2 mM TCEP, 0.5% CA-630, 25 C; EMSA: 30 uM protein, 10 uM dsDNA, 20 mM Tris pH 8.0, 100 mM NaCl, 2.5 mM MgCl2, 0.1% CA-630, 10% glycerol, 1 uM ZnSO4, 1 mM DTT, 4 C; details: protein: recombinant, tags: His6-MBP or GST tag, TEV-cleavable (cleaved when necessary)
T1 sequence: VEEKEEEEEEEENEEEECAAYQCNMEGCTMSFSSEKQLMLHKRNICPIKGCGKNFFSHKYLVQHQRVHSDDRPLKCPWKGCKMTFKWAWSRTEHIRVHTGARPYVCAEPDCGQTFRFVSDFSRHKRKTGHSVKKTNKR

REF6 ZnF1-4 WT [2] = target: T1, REF6 ZnF1-4 WT; experiment: MST; MST: 20 mM HEPES pH 7.3, 150 mM NaCl, 0.2 mM TCEP, 0.5% CA-630, 25 C; EMSA: 30 uM protein, 10 uM dsDNA, 20 mM Tris pH 8.0, 100 mM NaCl, 2.5 mM MgCl2, 0.1% CA-630, 10% glycerol, 1 uM ZnSO4, 1 mM DTT, 4 C; details: protein: recombinant, tags: His6-MBP or GST tag, TEV-cleavable (cleaved when necessary)
[3] = target: the molecule itself; experiment: SEC; analytical gel filtration, Superdex 200 10/300 GL, 5.0 mg mL^−1, no DNA; 20 mM HEPES pH 7.3, 500 mM NaCl, 2 mM β-mercaptoethanol
REF6 N1276F = target: T2, REF6 N1276F (Arabidopsis thaliana, UniProt Q9STM3 1223-1360, N1276F); experiment: MST; MST: 20 mM HEPES pH 7.3, 150 mM NaCl, 0.2 mM TCEP, 0.5% CA-630, 25 C; EMSA: 30 uM protein, 10 uM dsDNA, 20 mM Tris pH 8.0, 100 mM NaCl, 2.5 mM MgCl2, 0.1% CA-630, 10% glycerol, 1 uM ZnSO4, 1 mM DTT, 4 C; details: protein: recombinant; tags: His6-MBP or GST, TEV-cleavable; label: FAM in MST
T2 sequence: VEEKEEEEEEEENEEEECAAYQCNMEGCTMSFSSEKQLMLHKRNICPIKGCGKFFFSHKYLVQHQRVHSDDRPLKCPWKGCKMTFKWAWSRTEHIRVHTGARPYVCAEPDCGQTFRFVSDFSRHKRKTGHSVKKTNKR

REF6 ZnF1-4 WT [4] = target: T1, REF6 ZnF1-4 WT; experiment: MST; Hill coefficient 1.9; MST: 20 mM HEPES pH 7.3, 150 mM NaCl, 0.2 mM TCEP, 0.5% CA-630, 25 C; EMSA: 30 uM protein, 10 uM dsDNA, 20 mM Tris pH 8.0, 100 mM NaCl, 2.5 mM MgCl2, 0.1% CA-630, 10% glycerol, 1 uM ZnSO4, 1 mM DTT, 4 C; details: protein: recombinant; tags: His6-MBP or GST tag, TEV-cleavable (cleaved when necessary); label: FAM in MST

B1: CUC2-4 (dsDNA)
DNA 1: TCCCTCTGTGCACGC
DNA 2: GCGTGCACAGAGGGA
- binding result (REF6 ZnF1-4 WT [1]; label: FAM in MST): binds

B2: CUC2-3 (dsDNA)
DNA 1: TAGCTCTGATAAAAT
DNA 2: ATTTTATCAGAGCTA
- binding result (REF6 ZnF1-4 WT [1]): binds

B3: m12 (G9A) (dsDNA)
DNA 1: CTTTCTCTATTTTGTC
DNA 2: GGACAAAATAGAGAAA
- Kd (REF6 ZnF1-4 WT [2]; label: FAM, 5' overhang 1 nt on both strands (as m5)): 4.5 µM

B4: CUC1-3 (dsDNA)
DNA 1: GGACTCTGTTTTAGA
DNA 2: TCTAAAACAGAGTCC
- Kd (REF6 ZnF1-4 WT [2]; label: FAM in MST): 1 µM

B5: m5-m9'C (dsDNA)
DNA 1: CTTTCTCTGTTTTGTC
DNA 2: GGACAAAACAGAGAAA
modifications: methylcytosine at position 9 of strand 2 (9'C)
- Kd (REF6 ZnF1-4 WT [2]; label: FAM in MST, 5' overhang 1 nt on both strands (as m5)): 5.9 µM

B6: CUC1-4 (dsDNA)
DNA 1: TTACTCTGTTTGTAA
DNA 2: TTACAAACAGAGTAA
- Kd (REF6 ZnF1-4 WT [2]; label: FAM in MST): 2.6 µM

B7: CUC1-6 (dsDNA)
DNA 1: TTGCTCTGTTCGTTC
DNA 2: GAACGAACAGAGCAA
- binding result (REF6 ZnF1-4 WT [1]): binds

B8: CUC1-5 (dsDNA)
DNA 1: TTTCTCTGCTCAAAT
DNA 2: ATTTGAGCAGAGAAA
- binding result (REF6 ZnF1-4 WT [1]; label: FAM in MST): binds

B9: CUC2-1 (dsDNA)
DNA 1: TTGCTCTGTTAGTTC
DNA 2: GAACTAACAGAGCAA
- binding result (REF6 ZnF1-4 WT [1]): binds

B10: REF6 (residues 1223–1360) (domain or fragment, Arabidopsis thaliana, UniProt Q9STM3 1223-1360, looked up)
chain: VEEKEEEEEEEENEEEECAAYQCNMEGCTMSFSSEKQLMLHKRNICPIKGCGKNFFSHKYLVQHQRVHSDDRPLKCPWKGCKMTFKWAWSRTEHIRVHTGARPYVCAEPDCGQTFRFVSDFSRHKRKTGHSVKKTNKR
notes: The fusion tag was cleaved with TEV protease 'when necessary'
- stoichiometry N [3]: 2

B11: CUC1-1 (dsDNA)
DNA 1: TTCCTCTGTTCTTAT
DNA 2: ATAAGAACAGAGGAA
- binding result (REF6 ZnF1-4 WT [1]; label: FAM in MST): binds

B12: REF6 fragment 1139–1360 (domain or fragment, Arabidopsis thaliana, UniProt Q9STM3 1139-1360, looked up)
chain: RSTAKRIAKTKTVQSSRDTKGRFLQEFASGKKNEELDSYMEGPSTRLRVRHQKPSRGSLETKPKKIGKKRSGNASFSRVATEKDVEEKEEEEEEEENEEEECAAYQCNMEGCTMSFSSEKQLMLHKRNICPIKGCGKNFFSHKYLVQHQRVHSDDRPLKCPWKGCKMTFKWAWSRTEHIRVHTGARPYVCAEPDCGQTFRFVSDFSRHKRKTGHSVKKTNKR
notes: source: E. coli BL21 (DE3), purified
- stoichiometry N [3]: 2

B13: CUC2-2 (dsDNA)
DNA 1: TCTCTCTGTCTTTTC
DNA 2: GAAAAGACAGAGAGA
- binding result (REF6 ZnF1-4 WT [1]): binds

B14: CUC1-3+4 (dsDNA)
DNA 1: TCTAAAACAGAGTCCTCCTTACTCTGTTTGTAA
DNA 2: TTACAAACAGAGTAAGGAGGACTCTGTTTTAGA
- binding signal (REF6 N1276F): 2.5 fold lower affinity than WT
- binding signal (REF6 ZnF1-4 WT [4]): 5 fold higher affinity than CUC1-3 (13-fold than CUC1-4)

B15: CUC1-2 (dsDNA)
DNA 1: AGACTCTGTTTCAGA
DNA 2: TCTGAAACAGAGTCT
- binding result (REF6 ZnF1-4 WT [1]): binds

B16: REF6 fragment 1175–1360 (domain or fragment, Arabidopsis thaliana, UniProt Q9STM3 1175-1360, looked up)
chain: DSYMEGPSTRLRVRHQKPSRGSLETKPKKIGKKRSGNASFSRVATEKDVEEKEEEEEEEENEEEECAAYQCNMEGCTMSFSSEKQLMLHKRNICPIKGCGKNFFSHKYLVQHQRVHSDDRPLKCPWKGCKMTFKWAWSRTEHIRVHTGARPYVCAEPDCGQTFRFVSDFSRHKRKTGHSVKKTNKR
notes: as for B12
- stoichiometry N [3]: 2
